# Test results reported in the supplement of paper PMC9112550, “Optimization of the antimicrobial peptide Bac7 by deep mutational scanning” (BMC Biology, 2022).
# Tested on: Escherichia coli TOP10
# Test: shrunken log2 fold change of peptide-encoding DNA abundance (4.5 h post-induction vs induction); higher = less antimicrobial activity (less host growth inhibition)
# Conditions: time post-induction: 4.5 h; library: site-saturation at positions 5, 18, 19, 20
# 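Also: peptides expressed intracellularly from a pBAD plasmid library in pooled LB shake-flask culture, induced with 0.3% L-arabinose, DNA abundance read by NGS, three biological replicates, DESeq2 with apeglm shrinkage.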
row,Sequence,shrunken log2 fold change
1,RRIRKRPPRLPRPRPRPNLFPRP,0.00721
2,RRIRDRPPRLPRPRPRPYVFPRP,-0.18
3,RRIRWRPPRLPRPRPRPQSDPRP,-0.239
4,RRIRRRPPRLPRPRPRPCDNPRP,0.0406
5,RRIRWRPPRLPRPRPRPVNCPRP,0.0456
6,RRIRNRPPRLPRPRPRPRCLPRP,-0.157
7,RRIRNRPPRLPRPRPRPLMKPRP,-0.431
8,RRIRKRPPRLPRPRPRPEVPPRP,0.539
9,RRIRERPPRLPRPRPRPNVLPRP,-0.0106
10,RRIRIRPPRLPRPRPRPETIPRP,-0.115
11,RRIRTRPPRLPRPRPRPEKMPRP,0.171
12,RRIRCRPPRLPRPRPRPNRFPRP,2.96
13,RRIRVRPPRLPRPRPRPSHSPRP,-0.171
14,RRIRQRPPRLPRPRPRPLIIPRP,-0.781
15,RRIRCRPPRLPRPRPRPDFYPRP,-0.629
16,RRIRYRPPRLPRPRPRPCCHPRP,-1.36
17,RRIRERPPRLPRPRPRPAMEPRP,-0.0417
18,RRIRTRPPRLPRPRPRPAANPRP,0.0922
19,RRIRFRPPRLPRPRPRPIIDPRP,-1.61
20,RRIRDRPPRLPRPRPRPYCDPRP,-0.181
21,RRIRFRPPRLPRPRPRPPFLPRP,-0.0645
22,RRIRKRPPRLPRPRPRPEIEPRP,2.58
23,RRIRMRPPRLPRPRPRPLANPRP,0.235
24,RRIRRRPPRLPRPRPRPHGTPRP,0.00291
25,RRIRQRPPRLPRPRPRPWIMPRP,-0.141

row,Sequence,shrunken log2 fold change
1,RRIRNRPPRLPRPRPRPYFCPRP,-0.5
2,RRIRMRPPRLPRPRPRPFIAPRP,-0.251
3,RRIRCRPPRLPRPRPRPLCPPRP,-0.254
4,RRIRARPPRLPRPRPRPIKPPRP,0.0335
5,RRIRLRPPRLPRPRPRPGNMPRP,-0.157
6,RRIRGRPPRLPRPRPRPLWNPRP,0.116
7,RRIRDRPPRLPRPRPRPQIPPRP,-0.085
8,RRIRVRPPRLPRPRPRPRKAPRP,-0.124
9,RRIRYRPPRLPRPRPRPPCMPRP,-0.315
10,RRIRPRPPRLPRPRPRPNDMPRP,-0.208
11,RRIRFRPPRLPRPRPRPCQLPRP,-0.938
12,RRIRTRPPRLPRPRPRPFLCPRP,-0.978
13,RRIRLRPPRLPRPRPRPWHGPRP,-0.109
14,RRIRSRPPRLPRPRPRPDDKPRP,0.132
15,RRIRFRPPRLPRPRPRPFSSPRP,-0.468
16,RRIRIRPPRLPRPRPRPKMYPRP,-0.25
17,RRIRWRPPRLPRPRPRPGWKPRP,0.0668
18,RRIRGRPPRLPRPRPRPQPYPRP,-0.0844
19,RRIRLRPPRLPRPRPRPQNYPRP,-0.626
20,RRIRQRPPRLPRPRPRPHEDPRP,0.0107
21,RRIRPRPPRLPRPRPRPVTTPRP,-0.0302
22,RRIRMRPPRLPRPRPRPKVQPRP,1.85
23,RRIRERPPRLPRPRPRPDNCPRP,-0.0268
24,RRIRERPPRLPRPRPRPFGYPRP,-0.0787
25,RRIRKRPPRLPRPRPRPPGQPRP,1.25

row,Sequence,shrunken log2 fold change
1,RRIRLRPPRLPRPRPRPDMAPRP,0.0097
2,RRIRGRPPRLPRPRPRPVHDPRP,-0.0619
3,RRIRCRPPRLPRPRPRPKRQPRP,0.13
4,RRIRIRPPRLPRPRPRPALYPRP,-0.312
5,RRIRYRPPRLPRPRPRPPSKPRP,-0.409
6,RRIRRRPPRLPRPRPRPQTEPRP,-0.0572
7,RRIRERPPRLPRPRPRPREWPRP,0.325
8,RRIRRRPPRLPRPRPRPNNTPRP,0.00573
9,RRIRPRPPRLPRPRPRPMLWPRP,0.172
10,RRIRKRPPRLPRPRPRPKIHPRP,-0.152
11,RRIRKRPPRLPRPRPRPVGDPRP,0.247
12,RRIRSRPPRLPRPRPRPCVNPRP,-0.0338
13,RRIRNRPPRLPRPRPRPPSTPRP,0.0609
14,RRIRWRPPRLPRPRPRPDNAPRP,-0.000159
15,RRIRWRPPRLPRPRPRPCCPPRP,-0.206
16,RRIRLRPPRLPRPRPRPSEFPRP,-0.855
17,RRIRARPPRLPRPRPRPCVKPRP,0.069
18,RRIRWRPPRLPRPRPRPKHSPRP,0.0898
19,RRIRCRPPRLPRPRPRPQMVPRP,0.151
20,RRIRDRPPRLPRPRPRPQPCPRP,-0.0957
21,RRIRPRPPRLPRPRPRPTNKPRP,-0.208
22,RRIRDRPPRLPRPRPRPMTIPRP,0.0371
23,RRIRPRPPRLPRPRPRPCGMPRP,0.0189
24,RRIRKRPPRLPRPRPRPDTHPRP,0.234
25,RRIRRRPPRLPRPRPRPLCFPRP,0.898
